In article PMC7987009 (bioRxiv, 2021):

Columns and labels:
[1] = target: SARS-CoV-2 spike receptor-binding domain (RBD), wild type (SARS-CoV-2, Wuhan-Hu-1 (wild type), UniProt P0DTC2); test: ELISA
[2] = target: SARS-CoV-2 spike HexaPro (S), prefusion-stabilized trimer (SARS-CoV-2, Wuhan-Hu-1, HexaPro design, stabilised); test: cell-based or functional assay

Binder | binding result [1] | IC50 of neutralisation of the virus in vitro [2] [ng/mL]
Nb105 (VHH) VHH: HVQLVESGGGLVQAGGSLRLSCAVSGRTFSTYGMAWFRQAPGKERDFVATITRSGETTLYADSVKGRFTISRDNAKNTVYLQMNSLKIEDTAVYYCAVRRDSSWGYSRDLFEYDYWGQGTQVTVSS | binds | –
Nb34 (VHH) VHH: DVQLVESGGGLVQAGGSLRLSCAASGFTFSNYVMYWGRQAPGKGREWVSGIDSDGSDTAYASSVKGRFTISRDNAKNTLYLQMNNLKPEDTALYYCVKSKDPYGSPWTRSEFDDYWGQGTQVTVSS | binds | –
Nb17 (VHH) VHH: HVQLVESGGGLVQAGGSLRLSCAASGSIFSSNAMSWYRQAPGKQRELVASITSGGNADYADSVKGRFTISRDKNTVYPEMSSLKPADTAVYYCHAVGQEASAYAPRAYWGQGTQVTVSS | – | ~25
Nb20 (VHH) VHH: QVQLVESGGGLVQAGGSLRLSCAVSGAGAHRVGWFRRAPGKEREFVAAIGASGGMTNYLDSVKGRFTISRDNAKNTIYLQMNSLKPQDTAVYYCAARDIETAEYIYWGQGTQVTVSS | binds | –
